Assay in all cases: FRET or BRET
Background: In BRET a luciferase serves as donor, and the signal depends on an acceptor being close.

In experiment [1] the target is T1, ASIC3(Q269G)-CER (rat, UniProt O35240 1-533, Q269G).
T1 sequence (looked up): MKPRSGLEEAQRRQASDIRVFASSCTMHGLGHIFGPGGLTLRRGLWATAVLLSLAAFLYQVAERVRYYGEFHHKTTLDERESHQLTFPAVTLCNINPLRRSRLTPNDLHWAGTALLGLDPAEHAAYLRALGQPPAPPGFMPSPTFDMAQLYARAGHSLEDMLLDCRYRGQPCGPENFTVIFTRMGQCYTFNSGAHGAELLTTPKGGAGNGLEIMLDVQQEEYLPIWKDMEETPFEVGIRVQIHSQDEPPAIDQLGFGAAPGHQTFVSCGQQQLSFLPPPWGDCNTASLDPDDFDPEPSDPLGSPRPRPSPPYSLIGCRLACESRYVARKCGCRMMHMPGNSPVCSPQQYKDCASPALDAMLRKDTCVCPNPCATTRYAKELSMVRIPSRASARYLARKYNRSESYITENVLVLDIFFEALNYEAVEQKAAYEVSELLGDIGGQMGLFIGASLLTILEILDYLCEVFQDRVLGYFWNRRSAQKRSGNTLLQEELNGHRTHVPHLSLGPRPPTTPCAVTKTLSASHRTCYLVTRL

Experiment [2] has as its target T2, ASIC3-CER (rat acid-sensing ion channel 3 with a C-terminal mCerulean3) (rat, UniProt O35240 1-533).
T2 sequence (looked up): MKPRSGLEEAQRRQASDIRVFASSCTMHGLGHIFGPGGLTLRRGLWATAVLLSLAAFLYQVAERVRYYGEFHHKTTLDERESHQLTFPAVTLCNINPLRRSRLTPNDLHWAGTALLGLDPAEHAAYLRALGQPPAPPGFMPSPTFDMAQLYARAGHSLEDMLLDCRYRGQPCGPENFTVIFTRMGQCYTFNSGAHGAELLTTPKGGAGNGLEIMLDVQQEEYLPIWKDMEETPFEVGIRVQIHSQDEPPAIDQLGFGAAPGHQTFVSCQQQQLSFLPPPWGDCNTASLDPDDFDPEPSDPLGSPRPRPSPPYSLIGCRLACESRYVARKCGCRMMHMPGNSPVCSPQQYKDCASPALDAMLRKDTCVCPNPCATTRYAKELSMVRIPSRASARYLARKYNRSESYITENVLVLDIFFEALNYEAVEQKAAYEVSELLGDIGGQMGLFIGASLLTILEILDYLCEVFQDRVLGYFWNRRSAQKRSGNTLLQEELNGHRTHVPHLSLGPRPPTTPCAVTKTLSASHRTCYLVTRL

In experiment [3] the target is T3, ASIC3(44–71)1a-CER (rat, UniProt O35240 1-43; P55926 44-71; O35240 72-533).
T3 chain (looked up): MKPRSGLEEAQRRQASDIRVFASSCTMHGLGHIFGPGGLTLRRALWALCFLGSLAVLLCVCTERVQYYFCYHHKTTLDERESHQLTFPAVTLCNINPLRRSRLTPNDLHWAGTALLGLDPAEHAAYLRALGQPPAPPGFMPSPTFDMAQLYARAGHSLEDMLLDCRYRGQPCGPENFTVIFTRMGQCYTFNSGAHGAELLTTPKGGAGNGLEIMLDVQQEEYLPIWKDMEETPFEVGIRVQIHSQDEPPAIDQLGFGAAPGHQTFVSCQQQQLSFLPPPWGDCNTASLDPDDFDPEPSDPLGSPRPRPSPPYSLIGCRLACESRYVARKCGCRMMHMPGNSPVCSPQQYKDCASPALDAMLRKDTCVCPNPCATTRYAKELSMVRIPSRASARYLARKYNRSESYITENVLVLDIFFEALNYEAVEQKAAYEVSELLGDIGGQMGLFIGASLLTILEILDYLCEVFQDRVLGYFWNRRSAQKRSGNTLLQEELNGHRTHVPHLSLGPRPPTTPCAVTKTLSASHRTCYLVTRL

The target in experiment [4] is ASIC3(506–519)1a-CER (rat) (UniProt O35240).
Experiment [5] has as its target ASIC3(1–43,466–505)1a-CER (rat) (UniProt O35240).
Experiment [6] concerns the target ASIC3(466–505)1a-CER (rat) (UniProt O35240).

B1: STOM-YFP (mouse stomatin with a C-terminal EYFP) (natural protein, UniProt P54116 1-284, looked up)
chain: MSDKRQSSHVQSQRIPESFRENSKTELGACGWILVAASFFFVIITFPISIWICIKIVKEYERVIIFRLGRILQGGAKGPGLFFILPCTDSLIKVDMRTISFDIPPQEVLTKDSVTISVDGVVYYRVQNATLAVANITNADSATRLLAQTTLRNALGTKNLSQILSDREEIAHHMQSTLDDATDDWGIKVERVEIKDVKLPVQLQRAMAAEAEAAREARAKVIAAEGEMNASRALKEASMVITESPAALQLRYLQTLTTIAAEKNSTIVFPLPVDMLQGIMGSNH
Regarding B1, the FRET efficiency in experiment [1] worked out at 10.3%; in experiment [2] it was 12.5%; in experiment [3], 11.8%; in experiment [4] it was 9.9%; in experiment [5], 9.3%; in experiment [6], 13.1%.

For the origin of these results see PMC7054857 (The Journal of General Physiology, 2020).
